The values that follow come from patent US20230391887A1.

Experiment [1] has as its target meditope-enabled Trastuzumab v2.0 (83E meditope enabled antibody trastuzumab). Kind of experiment: SPR, antibody immobilized at 750 RU, 37 C, 1:1 fit. In general terms: In SPR one partner is held on a chip, and binding of the other changes the refractive index at the surface.
Experiment [2] shares this target. As to the kind of experiment: SPR, antibody immobilized at 1500 RU, 37 C.
The target is the same in experiment [3]. As to the kind of experiment: SPR, antibody immobilized at 1500 RU, 37 C, 1:1 fit.
The target is the same in experiment [4]. Kind of experiment: SPR, antibody immobilized at 150 RU, 37 C, 1:1 fit.

B1: trivalent meditope (TVM) (protein)
chain: GGSAAPSSAPSPSAPCQFDLSTRRLSCGGASPAASPSAPSSPAPKAPSAAPSSAPSPSAPGGCQFDLSTRRLSCGGASPAASPSAPSSPAPKAPSAAPSSAPSPSAPGGCQFDLSTRRLSCGGSPSAPSSPSSPKLPETG
Consider B1, for which, in experiment [1], the Kd amounted to 14 nM, the koff stood at 0.00014 s⁻¹, the kon amounted to 10000 M⁻¹ s⁻¹ and the t1/2 turned out to be 1.3 h. In experiment [2], this molecule gave a fold improvement of half-life against the monovalent meditope of more than 30 fold and a half-life of 2.42 h. In experiment [3], the Kd came out at 8.2 nM, the koff is 8e-05 s⁻¹, the kon amounted to 9800 M⁻¹ s⁻¹ and the t1/2 is 2.4 h. For the same molecule, in experiment [4], the Kd worked out at 51.2 nM, the koff was 0.00045 s⁻¹, the kon was 8700 M⁻¹ s⁻¹ and the t1/2 was determined as 0.4 h.

For orientation: Kd means a measure of binding affinity in units of concentration. For orientation: koff means the first-order rate constant of dissociation. Low readings indicate slow dissociation, high ones fast dissociation. Broadly, the kon is the rate constant with which the complex forms. One may read the half-life as how long it takes for the measured level to halve. A lower half-life goes with rapid decline.
